Data on 14 molecules can be found in patent publication US20230265151A1, “GIP/GLP1 CO-AGONIST COMPOUNDS” (priority 2020, published 2023).

Holding throughout (assay): cell-based or functional assay
For one experiment, the target named is T1, human GIP receptor (human, UniProt P48546 22-466).
T1 sequence (looked up): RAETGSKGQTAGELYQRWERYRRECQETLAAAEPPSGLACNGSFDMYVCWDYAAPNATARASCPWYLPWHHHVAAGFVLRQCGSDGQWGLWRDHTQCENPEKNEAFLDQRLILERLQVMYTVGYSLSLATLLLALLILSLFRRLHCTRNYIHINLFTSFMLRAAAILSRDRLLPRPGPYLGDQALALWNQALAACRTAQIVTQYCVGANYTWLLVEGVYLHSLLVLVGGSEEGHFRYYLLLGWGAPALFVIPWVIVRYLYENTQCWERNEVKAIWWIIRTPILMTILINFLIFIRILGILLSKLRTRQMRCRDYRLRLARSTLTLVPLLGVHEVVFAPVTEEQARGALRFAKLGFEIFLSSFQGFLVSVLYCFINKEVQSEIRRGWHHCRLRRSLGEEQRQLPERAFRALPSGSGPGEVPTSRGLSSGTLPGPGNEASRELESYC

The target in a further experiment is human GLP-1 receptor (human, UniProt P43220 24-463).
The target of a further experiment is human glucagon receptor (human, UniProt P47871 26-477).
Chain of human glucagon receptor (P47871 26-477): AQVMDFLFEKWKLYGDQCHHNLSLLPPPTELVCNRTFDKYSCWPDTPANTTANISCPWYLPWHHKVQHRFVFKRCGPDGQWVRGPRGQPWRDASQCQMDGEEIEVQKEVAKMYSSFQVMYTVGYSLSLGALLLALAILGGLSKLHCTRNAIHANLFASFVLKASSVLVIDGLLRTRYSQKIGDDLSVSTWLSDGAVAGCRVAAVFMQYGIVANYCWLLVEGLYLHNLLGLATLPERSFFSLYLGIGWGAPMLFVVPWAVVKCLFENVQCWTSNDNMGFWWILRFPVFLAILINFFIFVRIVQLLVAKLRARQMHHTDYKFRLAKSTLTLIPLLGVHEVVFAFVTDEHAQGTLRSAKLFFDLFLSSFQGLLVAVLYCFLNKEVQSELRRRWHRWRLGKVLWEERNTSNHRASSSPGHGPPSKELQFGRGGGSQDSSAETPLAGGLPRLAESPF

B1: Example 454 (peptide)
peptide: YXEGTXTSDXXIXLDXQAQXXFIKXLIKGGPSSGAPPPS
modifications: not fully specified; Y-Aib-EGT-αMeF(2F)-TSD-4Pal-Aib-I-αMeL-LD-Orn-QAQ-Aib-Orn-FIK((2-[2-(2-Amino-ethoxy)-ethoxy]10-(4-carboxyphenoxy)decanoyl))-αMeY-LIK((2-[2-(2-Amino-ethoxy)-ethoxy]-acetyl)-Aoc-(γ-Glu)-(10-(4-carboxyphenoxy)decanoyl))GGPSSGAPPPS-NH2
In the case of B1, the “cAMP EC50 (1.0% HSA)” value was 1.3 nM in the experiment with human GIP receptor, 18.6 nM with human GLP-1 receptor and more than 9950 nM in the experiment with human glucagon receptor.

B2: Example 457 (peptide)
peptide: YXEGTXTSDXXIXLDXQAQXXFIKXLIKGGPSSGAPPPS
modifications: Y-Aib-EGT-αMeF(2F)-TSD-4Pal-Aib-I-αMeL-LD-Orn-QAQ-Aib-Orn-FIK(PEG4-(γ-Glu)-CO-(CH2)12-CO2H)-αMeY-LIK(PEG4-(γ-Glu)-CO-(CH2)12-CO2H)GGPSSGAPPPS-NH2
B2: the “cAMP EC50 (1.0% HSA)” value was 0.334 nM with human GIP receptor, 4.69 nM with human GLP-1 receptor and more than 9950 nM in the experiment with human glucagon receptor.

B3: Example 459 (peptide)
peptide: YXEGTXTSDXXIXLDXQAQXXFIKXLIKGGPSSGAPPPS
modifications: Y-Aib-EGT-αMeF(2F)-TSD-4Pal-Aib-I-αMeL-LD-Orn-QAQ-Aib-Orn-FIK((2-[2-(2-Amino-ethoxy)-ethoxy]-acetyl)-(γ-Glu)-CO-(CH2)12-CO2H)-αMeY-LIK((2-[2-(2-Amino-ethoxy)-ethoxy]-acetyl)-(γ-Glu)-CO-(CH2)12-CO2H)GGPSSGAPPPS-NH2
For the molecule B3, the “cAMP EC50 (1.0% HSA)” value in the experiment with human GIP receptor is 0.323 nM; in the experiment with human GLP-1 receptor, 4.87 nM; with human glucagon receptor, more than 9950 nM.

B4: Example 463 (peptide)
peptide: YXEGTXTSDXXIXLDXQAQXXFIKXLIKGGPSSGAPPPS
modifications: Y-Aib-EGT-αMeF(2F)-TSD-4Pal-Aib-I-αMeL-LD-Orn-QAQ-Aib-Orn-FIK((2-[2-(2-Amino-ethoxy)-ethoxy]-acetyl)-(γ-Glu)-(10-(4-carboxyphenoxy)decanoyl))-αMeY-LIK((2-[2-(2-Amino-ethoxy)-ethoxy]-acetyl)-(γ-Glu)-(10-(4-carboxyphenoxy)decanoyl))GGPSSGAPPPS-NH2
For the molecule B4, the “cAMP EC50 (1.0% HSA)” value is 0.35 nM with human GIP receptor, 4.09 nM with human GLP-1 receptor and more than 9950 nM with human glucagon receptor.

B5: Example 456 (peptide)
peptide: YXEGTXTSDXXIXLDXQAQXXFIKXLIKGGPSSGAPPPS
modifications: Y-Aib-EGT-αMeF(2F)-TSD-4Pal-Aib-I-αMeL-LD-Orn-QAQ-Aib-Orn-FIK(Aoc-(2-[2-(2-Amino-ethoxy)-ethoxy]-acetyl)-(γ-Glu)-(10-(4-carboxyphenoxy)decanoyl))-αMeY-LIK(Aoc-(2-[2-(2-Amino-ethoxy)-ethoxy]-acetyl)-(γ-Glu)-(10-(4-carboxyphenoxy)decanoyl))GGPSSGAPPPS-NH2
As to B5, the “cAMP EC50 (1.0% HSA)” value in the experiment with human GIP receptor is 0.878 nM; with human GLP-1 receptor it was 14.7 nM; with human glucagon receptor it was more than 9950 nM.

B6: Example 455 (peptide)
peptide: YXEGTXTSDXXIXLDXQAQXXFIKXLIKGGPSSGAPPPS
modifications: Y-Aib-EGT-αMeF(2F)-TSD-4Pal-Aib-I-αMeL-LD-Orn-QAQ-Aib-Orn-FIK(Ahx-(2-[2-(2-Amino-ethoxy)-ethoxy]-acetyl)-(γ-Glu)-(10-(4-carboxyphenoxy)decanoyl))-αMeY-LIK(Ahx-(2-[2-(2-Amino-ethoxy)-ethoxy]-acetyl)-(γ-Glu)-(10-(4-carboxyphenoxy)decanoyl))GGPSSGAPPPS-NH2
On to B6, for which the results for the “cAMP EC50 (1.0% HSA)” value with human GIP receptor, in the experiment with human GLP-1 receptor and with human glucagon receptor were 0.362 nM, 5.24 nM and more than 9950 nM, respectively.

B7: Example 458 (peptide)
peptide: YXEGTXTSDXXIXLDXQAQXXFIKXLIKGGPSSGAPPPS
modifications: Y-Aib-EGT-αMeF(2F)-TSD-4Pal-Aib-I-αMeL-LD-Orn-QAQ-Aib-Orn-FIK(PEG3-(γ-Glu)-CO-(CH2)12-CO2H)-αMeY-LIK(PEG3-(γ-Glu)-CO-(CH2)12-CO2H)GGPSSGAPPPS-NH2
B7: the “cAMP EC50 (1.0% HSA)” value in the experiment with human GIP receptor is 0.726 nM; in the experiment with human GLP-1 receptor, 7.61 nM; with human glucagon receptor, more than 9950 nM.

B8: Example 468 (peptide)
peptide: YXEGTXTSDXXIXLDXQAQXXFIKXLIKGGPSSGAPPPS
modifications: Y-Aib-EGT-αMeF(2F)-TSD-4Pal-Aib-I-αMeL-LD-Orn-QAQ-Aib-Orn-FIK(PEG6-(γ-Glu)-(10-(4-carboxyphenoxy)decanoyl))-αMeY-LIK(PEG6-(γ-Glu)-(10-(4-carboxyphenoxy)decanoyl))GGPSSGAPPPS-NH2
Take B8: the “cAMP EC50 (1.0% HSA)” value in the experiment with human GIP receptor is 0.222 nM; in the experiment with human GLP-1 receptor, 1.84 nM; with human glucagon receptor it was more than 10100 nM.

B9: Example 469 (peptide)
peptide: YXEGTXTSDXXIXLDXQAQXXFIKXLIKGGPSSGAPPPS
modifications: Y-Aib-EGT-αMeF(2F)-TSD-4Pal-Aib-I-αMeL-LD-Orn-QAQ-Aib-Orn-FIK(PEG5-(γ-Glu)-(10-(4-carboxyphenoxy)decanoyl))-αMeY-LIK(PEG5-(γ-Glu)-(10-(4-carboxyphenoxy)decanoyl))GGPSSGAPPPS-NH2
With B9, the “cAMP EC50 (1.0% HSA)” value is 0.203 nM with human GIP receptor, 2.33 nM with human GLP-1 receptor and more than 9950 nM with human glucagon receptor.

B10: Example 467 (peptide)
peptide: YXEGTXTSDXXIXLDXQAQXXFIKXLIKGGPSSGAPPPS
modifications: Y-Aib-EGT-αMeF(2F)-TSD-4Pal-Aib-I-αMeL-LD-Orn-QAQ-Aib-Orn-FIK(PEG5-(γ-Glu)-CO-(CH2)12-CO2H)-αMeY-LIK(PEG5-(γ-Glu)-CO-(CH2)12-CO2H)GGPSSGAPPPS-NH2
Consider B10, for which the figures for the “cAMP EC50 (1.0% HSA)” value with human GIP receptor, in the experiment with human GLP-1 receptor and in the experiment with human glucagon receptor were 0.35 nM, 2.87 nM and more than 10100 nM, respectively.

B11: Example 462 (peptide)
peptide: YXEGTXTSDXXIXLDXQAQXXFIKXLIKGGPSSGAPPPS
modifications: Y-Aib-EGT-αMeF(2F)-TSD-4Pal-Aib-I-αMeL-LD-Orn-QAQ-Aib-Orn-FIK(PEG3-(γ-Glu)-(10-(4-carboxyphenoxy)decanoyl))-αMeY-LIK(PEG3-(γ-Glu)-(10-(4-carboxyphenoxy)decanoyl))GGPSSGAPPPS-NH2
On to B11, for which the figures for the “cAMP EC50 (1.0% HSA)” value with human GIP receptor, in the experiment with human GLP-1 receptor and with human glucagon receptor were 0.317 nM, 3.34 nM and more than 9950 nM, respectively.

B12: Example 466 (peptide)
peptide: YXEGTXTSDXXIXLDXQAQXXFIKXLIKGGPSSGAPPPS
modifications: Y-Aib-EGT-αMeF(2F)-TSD-4Pal-Aib-I-αMeL-LD-Orn-QAQ-Aib-Orn-FIK(PEG6-(γ-Glu)-CO-(CH2)12-CO2H)-αMeY-LIK(PEG6-(γ-Glu)-CO-(CH2)12-CO2H)GGPSSGAPPPS-NH2
With B12, the results for the “cAMP EC50 (1.0% HSA)” value with human GIP receptor, in the experiment with human GLP-1 receptor and with human glucagon receptor were 0.314 nM, 3.32 nM and more than 10100 nM, respectively.

B13: Example 461 (peptide)
peptide: YXEGTXTSDXXIXLDXQAQXXFIKXLIKGGPSSGAPPPS
modifications: Y-Aib-EGT-αMeF(2F)-TSD-4Pal-Aib-I-αMeL-LD-Orn-QAQ-Aib-Orn-FIK(PEG4-(γ-Glu)-(10-(4-carboxyphenoxy)decanoyl))-αMeY-LIK(PEG4-(γ-Glu)-(10-(4-carboxyphenoxy)decanoyl))GGPSSGAPPPS-NH2
For B13, the “cAMP EC50 (1.0% HSA)” value was 0.247 nM with human GIP receptor, 2.76 nM in the experiment with human GLP-1 receptor and more than 10100 nM with human glucagon receptor.

B14: Example 470 (peptide)
peptide: YXEGTXTSDXXIXLDXQAQXXFIKXLIKGGPSSGAPPPS
modifications: Y-Aib-EGT-αMeF(2F)-TSD-4Pal-Aib-I-αMeL-LD-Orn-QAQ-Aib-Orn-FIK((2-[2-(2-Amino-ethoxy)-ethoxy]-acetyl)2--Trx-(γ-Glu)-CO-(CH2)12-CO2H)-αMeY-LIK(((2-[2-(2-Amino-ethoxy)-ethoxy]-acetyl)2--Trx(γ-Glu)-CO-(CH2)12-CO2H)GGPSSGAPPPS-NH2)
Take B14: the “cAMP EC50 (1.0% HSA)” value in the experiment with human GIP receptor was 0.719 nM; with human GLP-1 receptor it was 4.54 nM; in the experiment with human glucagon receptor it was more than 9950 nM.
